{"source": "patent US20240082402A1", "about": "(ELPIS BIOPHARMACEUTICALS, published 2024)", "key": {"[1]": {"biological_target": "T1, HIS tagged human CD19 recombinant protein (human, UniProt P15391 20-291, limits assumed)", "T1 construct": "also called rhCD19; human CD19-HIS tagged protein; not shown: His tag", "T1 sequence (looked up)": "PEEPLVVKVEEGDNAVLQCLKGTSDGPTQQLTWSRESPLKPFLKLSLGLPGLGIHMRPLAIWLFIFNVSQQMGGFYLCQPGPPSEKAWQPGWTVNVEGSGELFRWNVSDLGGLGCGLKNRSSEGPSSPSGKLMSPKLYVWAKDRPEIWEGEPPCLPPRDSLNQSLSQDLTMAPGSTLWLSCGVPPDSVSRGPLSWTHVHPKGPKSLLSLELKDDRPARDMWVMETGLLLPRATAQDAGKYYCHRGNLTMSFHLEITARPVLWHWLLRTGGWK", "assay": "ELISA, His-tagged CD19 coated at 2 µg/mL, anti-hFc HRP detection", "experimental": "(§1) Briefly, 384 well plate was immobilized with HIS tagged human CD19 or CD22 recombinant protein at final concentration of 2 μg/mL in 1×PBS in total volume of 25μL per well. The plate was incubated overnight at 4° C. followed by blocking with 80μL of superblock per well for 1 hour. […] CD19 or CD22 binding was detected by adding 25 μL of anti-hFc HRP diluted at 1:5000 in 1×PBST. In between each step, the plate was washed 3 times with 1×PBST in a plate washer. The plate was then developed with 20 μL of TMB substrate for 5 mins and stopped by adding 20 μL of 2 N sulfuric acid. The plate was read at OD450 nm (BIOTEK plate reader) and data plotted using GraphPad Prism® 8.1 software. […]"}, "[2]": {"biological_target": "T1, HIS tagged human CD19 recombinant …", "assay": "SPR Biacore T200, Fc fusion captured on Protein A chip, His-tagged CD19 as analyte", "experimental": "(§2) The assay was run using Biacore™ T200 control software version 2.0. For each cycle, 1 μg/mL of Fc-fusion protein was captured for 60 seconds at flow rate of 10 ul/min on flow cell 2 in 1×HBSP buffer on Protein A sensor chip. 2-fold serial human CD19 or CD22-HIS tagged protein was injected onto both reference flow cell 1 and Fc fusion protein captured flow cell 2 for 150 seconds at flow rate of 30 μl/mins followed by wash for 300 seconds. The flow cells were then regenerated with Glycine pH2 for 60 seconds at flow rate of 30 ul/mins. 8 concentration points from 100-0 nM was assayed per Fc fusion in a 96 well plate. The kinetics of Anti-CD19, CD22, CD22-CD19 binding to CD19 or CD22 protein was analyzed using Biacore™ T200 evaluation software version 3.0. The specific binding response unit was derived from subtraction of binding to reference flow cell-1 from Fc fusion protein captured flow cell-2."}, "[3]": {"biological_target": "HIS tagged human CD19 recombinant protein (human) (UniProt P15391)", "assay": "ELISA, His-tagged CD19 coated at 2 µg/mL, anti-hFc HRP detection"}, "[4]": {"biological_target": "HIS tagged human CD22 recombinant protein (human) (UniProt P20273)", "assay": "ELISA, His-tagged CD22 coated at 2 µg/mL, anti-hFc HRP detection"}, "[5]": {"biological_target": "HIS tagged human CD19 recombinant protein (human) (UniProt P15391)", "assay": "SPR Biacore T200, Fc fusion captured on Protein A chip, His-tagged CD19 as analyte"}, "[6]": {"biological_target": "HIS tagged human CD22 recombinant protein (human) (UniProt P20273)", "assay": "SPR Biacore T200, Fc fusion captured on Protein A chip, His-tagged CD22 as analyte"}, "[7]": {"biological_target": "T2, endogenous CD19 on Raji / Nalm6 cells (also on CD22 knock-out Raji cells) (human, UniProt P15391 20-556)", "T2 construct": "whole, on cells", "T2 sequence (looked up)": "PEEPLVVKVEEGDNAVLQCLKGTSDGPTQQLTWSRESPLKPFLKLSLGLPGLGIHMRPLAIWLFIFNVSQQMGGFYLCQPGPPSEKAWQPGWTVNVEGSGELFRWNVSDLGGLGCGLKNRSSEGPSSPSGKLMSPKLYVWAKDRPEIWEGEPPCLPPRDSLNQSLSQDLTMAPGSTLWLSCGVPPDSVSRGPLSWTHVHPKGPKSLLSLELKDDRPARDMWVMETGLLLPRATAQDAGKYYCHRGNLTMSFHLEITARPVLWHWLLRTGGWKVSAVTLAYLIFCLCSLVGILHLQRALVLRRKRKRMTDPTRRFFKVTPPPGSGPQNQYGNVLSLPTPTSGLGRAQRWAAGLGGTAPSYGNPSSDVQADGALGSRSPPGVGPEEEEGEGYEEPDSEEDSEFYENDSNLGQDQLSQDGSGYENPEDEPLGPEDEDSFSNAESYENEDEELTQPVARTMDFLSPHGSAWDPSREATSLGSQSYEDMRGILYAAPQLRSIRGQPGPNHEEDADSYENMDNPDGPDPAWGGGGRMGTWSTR", "assay": "FACS, scFv-Fc fusion on CD22 knock-out Raji cells (which keep CD19)"}, "[8]": {"biological_target": "T3, HIS tagged human CD22 recombinant protein (human, UniProt P20273 20-687, limits assumed)", "T3 construct": "also called rhCD22; human CD22-HIS tagged protein; not shown: His tag", "assay": "ELISA, His-tagged CD22 coated at 2 µg/mL, anti-hFc HRP detection", "experimental": "as §1"}, "[9]": {"biological_target": "T3, HIS tagged human CD22 recombinant …", "assay": "SPR Biacore T200, Fc fusion captured on Protein A chip, His-tagged CD22 as analyte", "experimental": "as §2"}, "[10]": {"biological_target": "T1, HIS tagged human CD19 recombinant …", "assay": "ELISA, plate coated with His-tagged human CD19 at 2 ug/mL, anti-hFc HRP detection", "experimental": "as §1"}, "[11]": {"biological_target": "T4, full-length human CD19 on transfected K562 cells (human, UniProt P15391 20-556)", "T4 construct": "whole, on cells; K562 clone transfected with pCMV6-Entry; also called CD19 K562; CD19/K562; not shown: flag or Myc tag at the C-terminus", "T4 sequence (looked up)": "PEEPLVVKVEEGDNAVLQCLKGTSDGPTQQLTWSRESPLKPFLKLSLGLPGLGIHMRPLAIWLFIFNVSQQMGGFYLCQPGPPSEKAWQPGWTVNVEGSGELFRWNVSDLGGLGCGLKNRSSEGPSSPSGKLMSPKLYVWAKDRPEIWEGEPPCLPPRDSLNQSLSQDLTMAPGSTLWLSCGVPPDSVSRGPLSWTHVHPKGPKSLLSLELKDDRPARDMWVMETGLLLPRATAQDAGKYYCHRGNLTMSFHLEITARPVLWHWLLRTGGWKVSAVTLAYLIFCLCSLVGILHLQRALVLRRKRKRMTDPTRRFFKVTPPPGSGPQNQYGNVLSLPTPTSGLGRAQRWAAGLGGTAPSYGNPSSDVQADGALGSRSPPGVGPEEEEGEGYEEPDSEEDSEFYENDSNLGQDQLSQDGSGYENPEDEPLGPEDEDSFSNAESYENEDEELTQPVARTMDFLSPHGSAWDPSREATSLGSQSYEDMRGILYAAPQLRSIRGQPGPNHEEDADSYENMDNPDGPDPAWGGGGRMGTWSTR", "assay": "FACS, scFv at 200 nM on CD19 K562 cells, Alexa Fluor 647 anti-His detection, % positive cells", "experimental": "Cells were spun down at 1300 rpm for 5 minutes at 4° C. to remove unbound antibodies. Cells were then washed once with 200 iaL of PBS per well. […] Samples were then spun down at 1300 rpm for 5 minutes at 4° C. and washed twice with 200uL of 1×PBS per well. The resultant samples were reconstituted in 200 uL of 1×PBS and read on Attune™ NxT Flow Cytometer."}, "[12]": {"biological_target": "T5, endogenous CD22 on Raji / Nalm6 cells (also on CD19 knock-out Raji cells) (human, UniProt P20273 20-847)", "T5 construct": "whole, on cells", "assay": "FACS, scFv at 200 nM on Raji and Nalm6 cells, Alexa Fluor 647 anti-His detection, % positive cells"}}}
{"binder": "anti-CD19 scFv-Fc (Fc fusion, not shown: a dimerising Fc or GST, also called anti-CD19-Fc) QVQLQQWGAGLLKPSETLSLTCAVYGGSFSGYYWTWIRQPPGKGLEWIGEINHGGSSNYNPSLKSRVTISVDTSKKQFSLNLNSVTAADTAVYYCARGLGYRSGWYEVENAFDIWGQGTMVTVSSGGGGSGGGGSGGGGSQPVLTQPPSVSVAPGQTARITCGGNKIESRSVHWYQQKPGQAPVLVVYDDGARPSGIPERLSGSNSGDTATLTISRVEPGDEADYYCQVWDGSSVIFGGGTKLTVL", "values": [{"measurement": "EC50", "setting": "[1]", "value": 0.0094, "unit": "nM"}, {"measurement": "Kd", "setting": "[2]", "value": 3.75, "unit": "nM"}, {"measurement": "koff", "setting": "[2]", "value": 0.000223, "unit": "s⁻¹"}, {"measurement": "kon", "setting": "[2]", "value": 59400, "unit": "M⁻¹ s⁻¹"}]}
{"binder": "Anti-CD22scFv-CD19scFv-Fc (bispecific antibody, part only; not given: Fc and inter-scFv linker, not shown: a dimerising Fc or GST) chain, part: EVQLVQSGAEVKKPGASVKVSCKASGYTFTSYGISWVRQAPGQGLEWMGWISAYNGNTNYAQKLQGRVTMTTDTSTSTAYMELRSLRSDDTAVYYCARDYGDPSGDDYWGQGTLVTVSSGGGGSGGGGSGGGGSEIVLTQSPATLSVSPGEGVTLSCRASQSVSSNLAWYQQRPGQAPRLLIYGASIKATDVPDRFSGGGSGTDFTLSISNLQSEDFAVYYCQQYHTWPPVTFGGGTKVEIKQVQLQQWGAGLLKPSETLSLTCAVYGGSFSGYYWTWIRQPPGKGLEWIGEINHGGSSNYNPSLKSRVTISVDTSKKQFSLNLNSVTAADTAVYYCARGLGYRSGWYEVENAFDIWGQGTMVTVSSGGGGSGGGGSGGGGSQPVLTQPPSVSVAPGQTARITCGGNKIESRSVHWYQQKPGQAPVLVVYDDGARPSGIPERLSGSNSGDTATLTISRVEPGDEADYYCQVWDGSSVIFGGGTKLTVL", "values": [{"measurement": "EC50", "setting": "[3]", "value": 0.052, "unit": "nM"}, {"measurement": "EC50", "setting": "[4]", "value": 0.189, "unit": "nM"}, {"measurement": "Kd", "setting": "[5]", "value": 4.37, "unit": "nM"}, {"measurement": "koff", "setting": "[5]", "value": 0.00025, "unit": "s⁻¹"}, {"measurement": "kon", "setting": "[5]", "value": 57200, "unit": "M⁻¹ s⁻¹"}, {"measurement": "Kd", "setting": "[6]", "value": 3.37, "unit": "nM"}, {"measurement": "koff", "setting": "[6]", "value": 0.000266, "unit": "s⁻¹"}, {"measurement": "kon", "setting": "[6]", "value": 79000, "unit": "M⁻¹ s⁻¹"}]}
{"binder": "anti-CD22 scFv-Fc (Fc fusion, not shown: a dimerising Fc or GST, also called Anti-CD22-Fc) EVQLVQSGAEVKKPGASVKVSCKASGYTFTSYGISWVRQAPGQGLEWMGWISAYNGNTNYAQKLQGRVTMTTDTSTSTAYMELRSLRSDDTAVYYCARDYGDPSGDDYWGQGTLVTVSSGGGGSGGGGSGGGGSEIVLTQSPATLSVSPGEGVTLSCRASQSVSSNLAWYQQRPGQAPRLLIYGASIKATDVPDRFSGGGSGTDFTLSISNLQSEDFAVYYCQQYHTWPPVTFGGGTKVEIK", "values": [{"measurement": "binding result", "setting": "[7]", "value": "no binding"}, {"measurement": "EC50", "setting": "[8]", "value": 0.043, "unit": "nM"}, {"measurement": "Kd", "setting": "[9]", "value": 1.44, "unit": "nM"}, {"measurement": "koff", "setting": "[9]", "value": 0.000177, "unit": "s⁻¹"}, {"measurement": "kon", "setting": "[9]", "value": 122000, "unit": "M⁻¹ s⁻¹"}, {"measurement": "binding result", "setting": "[10]", "value": "no binding (tested: 25 nM)"}]}
{"binder": "EPC-001-2 (scFv, also called anti-CD22 monospecific scFv; parental anti-CD22 scFv) scFv (VH-linker-VL): QVQLVQSGAEVKRPGASVKVSCKASGYTFTSYGISWVRQAPGQGLEWMGWISAYNGNTNYAQKLQGRVTMTTDTSTSTAYMELRSLRSDDTAVYYCARDPGIAVAGTVDYWGQGTLVTVSSGGGGSGGGGSGGGGSEIVMTQSPATLSVSPGEGVTLSCRASQSVSSNLAWYQQRPGQAPRLLIYGASIKATDVPDRFSGGGSGTDFTLSISNVQSEDFAVYYCQQYHTWTPVTFGGGTKVEIK", "values": [{"measurement": "binding result", "setting": "[11]", "value": "no binding (tested: 200 nM)"}, {"measurement": "binding result", "setting": "[12]", "value": "binds"}]}
